US20140087995A1 (published 2014)
Numbered stars: 1 amine (or outer) side, 2 acyl side, 3 side chain; on linkers, the order of the positions; unused ones are H or OH. Bridge positions count the residues as written; N and C are the ends. Side chains are listed from the residue outwards. Ends that are not written are not given here. * marks the point of attachment. C20 diacid = O=C(O)CCCCCCCCCCCCCCCCCCC(=O)*; γGlu = O=C(O)[C@H](CCC(=O)[*:2])N[*:1]

T1: human calcitonin receptor (human, UniProt P30988 25-474)
T1 construct: whole, on cells; Membranes of BHK cells stably transfected with the human calcitonin receptor (Assay VII); also called hCTR; hCT
T1 sequence (looked up): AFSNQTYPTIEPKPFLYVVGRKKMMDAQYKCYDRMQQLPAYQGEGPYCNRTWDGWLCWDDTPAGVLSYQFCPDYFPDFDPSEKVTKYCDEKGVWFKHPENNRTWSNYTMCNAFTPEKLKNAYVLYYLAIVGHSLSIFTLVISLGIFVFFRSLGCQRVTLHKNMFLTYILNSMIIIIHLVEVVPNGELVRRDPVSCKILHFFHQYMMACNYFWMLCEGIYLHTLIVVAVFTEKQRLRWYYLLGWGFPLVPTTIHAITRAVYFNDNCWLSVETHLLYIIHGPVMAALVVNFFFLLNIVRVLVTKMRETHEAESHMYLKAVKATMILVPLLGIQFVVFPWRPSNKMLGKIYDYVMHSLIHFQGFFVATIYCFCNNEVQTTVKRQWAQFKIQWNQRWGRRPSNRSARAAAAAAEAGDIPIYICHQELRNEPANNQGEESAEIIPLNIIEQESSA

B1: N^ε1-[(4S)-4-carboxy-4-(19-carboxynonadecanoylamino)butanoyl]-[Glu14,Arg17,Pro21,Pro27,Arg34,Glu35]-h-amylin (peptide)
peptide: K([γGlu-C20 diacid])CNTATCATQRLAEFLRHSSPNFGAIPSSTNVGRETY-NH2
modifications: disulfide 2-7; N-terminus assumed
SMILES: CC[C@H](C)[C@H](NC(=O)[C@H](C)NC(=O)CNC(=O)[C@H](Cc1ccccc1)NC(=O)[C@H](CC(N)=O)NC(=O)[C@@H]1CCCN1C(=O)[C@H](CO)NC(=O)[C@H](CO)NC(=O)[C@H](Cc1c[nH]cn1)NC(=O)[C@H](CCCNC(=N)N)NC(=O)[C@H](CC(C)C)NC(=O)[C@H](Cc1ccccc1)NC(=O)[C@H](CCC(=O)O)NC(=O)[C@H](C)NC(=O)[C@H](CC(C)C)NC(=O)[C@H](CCCNC(=N)N)NC(=O)[C@H](CCC(N)=O)NC(=O)[C@@H](NC(=O)[C@H](C)NC(=O)[C@@H]1CSSC[C@H](NC(=O)[C@@H](N)CCCCNC(=O)CC[C@H](NC(=O)CCCCCCCCCCCCCCCCCCC(=O)O)C(=O)O)C(=O)N[C@@H](CC(N)=O)C(=O)N[C@@H]([C@@H](C)O)C(=O)N[C@@H](C)C(=O)N[C@@H]([C@@H](C)O)C(=O)N1)[C@@H](C)O)C(=O)N1CCC[C@H]1C(=O)N[C@@H](CO)C(=O)N[C@@H](CO)C(=O)N[C@H](C(=O)N[C@@H](CC(N)=O)C(=O)N[C@H](C(=O)NCC(=O)N[C@@H](CCCNC(=N)N)C(=O)N[C@@H](CCC(=O)O)C(=O)N[C@H](C(=O)N[C@@H](Cc1ccc(O)cc1)C(N)=O)[C@@H](C)O)C(C)C)[C@@H](C)O
B2: N^ε1-[(4S)-4-carboxy-4-(19-carboxynonadecanoylamino)butanoyl]-[Glu14,Arg17,Pro21,Pro27,His34,Glu35]-h-amylin (peptide)
peptide: K([γGlu-C20 diacid])CNTATCATQRLAEFLRHSSPNFGAIPSSTNVGHETY-NH2
modifications: disulfide 2-7; N-terminus assumed
SMILES: CC[C@H](C)[C@H](NC(=O)[C@H](C)NC(=O)CNC(=O)[C@H](Cc1ccccc1)NC(=O)[C@H](CC(N)=O)NC(=O)[C@@H]1CCCN1C(=O)[C@H](CO)NC(=O)[C@H](CO)NC(=O)[C@H](Cc1c[nH]cn1)NC(=O)[C@H](CCCNC(=N)N)NC(=O)[C@H](CC(C)C)NC(=O)[C@H](Cc1ccccc1)NC(=O)[C@H](CCC(=O)O)NC(=O)[C@H](C)NC(=O)[C@H](CC(C)C)NC(=O)[C@H](CCCNC(=N)N)NC(=O)[C@H](CCC(N)=O)NC(=O)[C@@H](NC(=O)[C@H](C)NC(=O)[C@@H]1CSSC[C@H](NC(=O)[C@@H](N)CCCCNC(=O)CC[C@H](NC(=O)CCCCCCCCCCCCCCCCCCC(=O)O)C(=O)O)C(=O)N[C@@H](CC(N)=O)C(=O)N[C@@H]([C@@H](C)O)C(=O)N[C@@H](C)C(=O)N[C@@H]([C@@H](C)O)C(=O)N1)[C@@H](C)O)C(=O)N1CCC[C@H]1C(=O)N[C@@H](CO)C(=O)N[C@@H](CO)C(=O)N[C@H](C(=O)N[C@@H](CC(N)=O)C(=O)N[C@H](C(=O)NCC(=O)N[C@@H](Cc1c[nH]cn1)C(=O)N[C@@H](CCC(=O)O)C(=O)N[C@H](C(=O)N[C@@H](Cc1ccc(O)cc1)C(N)=O)[C@@H](C)O)C(C)C)[C@@H](C)O
notes: also called compound 107
B3: N^ε1-[(4S)-4-carboxy-4-(19-carboxynonadecanoylamino)butanoyl]-[Glu14,Arg17,Pro21,Pro27,Pro34,Pro37]-h-amylin (peptide)
peptide: K([γGlu-C20 diacid])CNTATCATQRLAEFLRHSSPNFGAIPSSTNVGPNTP-NH2
modifications: disulfide 2-7; N-terminus assumed
SMILES: CC[C@H](C)[C@H](NC(=O)[C@H](C)NC(=O)CNC(=O)[C@H](Cc1ccccc1)NC(=O)[C@H](CC(N)=O)NC(=O)[C@@H]1CCCN1C(=O)[C@H](CO)NC(=O)[C@H](CO)NC(=O)[C@H](Cc1c[nH]cn1)NC(=O)[C@H](CCCNC(=N)N)NC(=O)[C@H](CC(C)C)NC(=O)[C@H](Cc1ccccc1)NC(=O)[C@H](CCC(=O)O)NC(=O)[C@H](C)NC(=O)[C@H](CC(C)C)NC(=O)[C@H](CCCNC(=N)N)NC(=O)[C@H](CCC(N)=O)NC(=O)[C@@H](NC(=O)[C@H](C)NC(=O)[C@@H]1CSSC[C@H](NC(=O)[C@@H](N)CCCCNC(=O)CC[C@H](NC(=O)CCCCCCCCCCCCCCCCCCC(=O)O)C(=O)O)C(=O)N[C@@H](CC(N)=O)C(=O)N[C@@H]([C@@H](C)O)C(=O)N[C@@H](C)C(=O)N[C@@H]([C@@H](C)O)C(=O)N1)[C@@H](C)O)C(=O)N1CCC[C@H]1C(=O)N[C@@H](CO)C(=O)N[C@@H](CO)C(=O)N[C@H](C(=O)N[C@@H](CC(N)=O)C(=O)N[C@H](C(=O)NCC(=O)N1CCC[C@H]1C(=O)N[C@@H](CC(N)=O)C(=O)N[C@H](C(=O)N1CCC[C@H]1C(N)=O)[C@@H](C)O)C(C)C)[C@@H](C)O
B4: N^ε1-[(4S)-4-carboxy-4-(19-carboxynonadecanoylamino)butanoyl]-[Glu14,Arg17,Pro21,Pro27,Pro34,Arg35]-h-amylin (peptide)
peptide: K([γGlu-C20 diacid])CNTATCATQRLAEFLRHSSPNFGAIPSSTNVGPRTY-NH2
modifications: disulfide 2-7; N-terminus assumed
SMILES: CC[C@H](C)[C@H](NC(=O)[C@H](C)NC(=O)CNC(=O)[C@H](Cc1ccccc1)NC(=O)[C@H](CC(N)=O)NC(=O)[C@@H]1CCCN1C(=O)[C@H](CO)NC(=O)[C@H](CO)NC(=O)[C@H](Cc1c[nH]cn1)NC(=O)[C@H](CCCNC(=N)N)NC(=O)[C@H](CC(C)C)NC(=O)[C@H](Cc1ccccc1)NC(=O)[C@H](CCC(=O)O)NC(=O)[C@H](C)NC(=O)[C@H](CC(C)C)NC(=O)[C@H](CCCNC(=N)N)NC(=O)[C@H](CCC(N)=O)NC(=O)[C@@H](NC(=O)[C@H](C)NC(=O)[C@@H]1CSSC[C@H](NC(=O)[C@@H](N)CCCCNC(=O)CC[C@H](NC(=O)CCCCCCCCCCCCCCCCCCC(=O)O)C(=O)O)C(=O)N[C@@H](CC(N)=O)C(=O)N[C@@H]([C@@H](C)O)C(=O)N[C@@H](C)C(=O)N[C@@H]([C@@H](C)O)C(=O)N1)[C@@H](C)O)C(=O)N1CCC[C@H]1C(=O)N[C@@H](CO)C(=O)N[C@@H](CO)C(=O)N[C@H](C(=O)N[C@@H](CC(N)=O)C(=O)N[C@H](C(=O)NCC(=O)N1CCC[C@H]1C(=O)N[C@@H](CCCNC(=N)N)C(=O)N[C@H](C(=O)N[C@@H](Cc1ccc(O)cc1)C(N)=O)[C@@H](C)O)C(C)C)[C@@H](C)O
B5: N^ε1-[(4S)-4-carboxy-4-(19-carboxynonadecanoylamino)butanoyl]-[His14,Arg17,Pro21,Pro27,Pro31,Pro34]-h-amylin (peptide)
peptide: K([γGlu-C20 diacid])CNTATCATQRLAHFLRHSSPNFGAIPSSTPVGPNTY-NH2
modifications: disulfide 2-7; N-terminus assumed
SMILES: CC[C@H](C)[C@H](NC(=O)[C@H](C)NC(=O)CNC(=O)[C@H](Cc1ccccc1)NC(=O)[C@H](CC(N)=O)NC(=O)[C@@H]1CCCN1C(=O)[C@H](CO)NC(=O)[C@H](CO)NC(=O)[C@H](Cc1c[nH]cn1)NC(=O)[C@H](CCCNC(=N)N)NC(=O)[C@H](CC(C)C)NC(=O)[C@H](Cc1ccccc1)NC(=O)[C@H](Cc1c[nH]cn1)NC(=O)[C@H](C)NC(=O)[C@H](CC(C)C)NC(=O)[C@H](CCCNC(=N)N)NC(=O)[C@H](CCC(N)=O)NC(=O)[C@@H](NC(=O)[C@H](C)NC(=O)[C@@H]1CSSC[C@H](NC(=O)[C@@H](N)CCCCNC(=O)CC[C@H](NC(=O)CCCCCCCCCCCCCCCCCCC(=O)O)C(=O)O)C(=O)N[C@@H](CC(N)=O)C(=O)N[C@@H]([C@@H](C)O)C(=O)N[C@@H](C)C(=O)N[C@@H]([C@@H](C)O)C(=O)N1)[C@@H](C)O)C(=O)N1CCC[C@H]1C(=O)N[C@@H](CO)C(=O)N[C@@H](CO)C(=O)N[C@H](C(=O)N1CCC[C@H]1C(=O)N[C@H](C(=O)NCC(=O)N1CCC[C@H]1C(=O)N[C@@H](CC(N)=O)C(=O)N[C@H](C(=O)N[C@@H](Cc1ccc(O)cc1)C(N)=O)[C@@H](C)O)C(C)C)[C@@H](C)O
B6: N^ε1-[(4S)-4-carboxy-4-(19-carboxynonadecanoylamino)butanoyl]-[Glu14,Arg17,Pro21,Pro27,His35]-h-amylin (peptide)
peptide: K([γGlu-C20 diacid])CNTATCATQRLAEFLRHSSPNFGAIPSSTNVGSHTY-NH2
modifications: disulfide 2-7; N-terminus assumed
SMILES: CC[C@H](C)[C@H](NC(=O)[C@H](C)NC(=O)CNC(=O)[C@H](Cc1ccccc1)NC(=O)[C@H](CC(N)=O)NC(=O)[C@@H]1CCCN1C(=O)[C@H](CO)NC(=O)[C@H](CO)NC(=O)[C@H](Cc1c[nH]cn1)NC(=O)[C@H](CCCNC(=N)N)NC(=O)[C@H](CC(C)C)NC(=O)[C@H](Cc1ccccc1)NC(=O)[C@H](CCC(=O)O)NC(=O)[C@H](C)NC(=O)[C@H](CC(C)C)NC(=O)[C@H](CCCNC(=N)N)NC(=O)[C@H](CCC(N)=O)NC(=O)[C@@H](NC(=O)[C@H](C)NC(=O)[C@@H]1CSSC[C@H](NC(=O)[C@@H](N)CCCCNC(=O)CC[C@H](NC(=O)CCCCCCCCCCCCCCCCCCC(=O)O)C(=O)O)C(=O)N[C@@H](CC(N)=O)C(=O)N[C@@H]([C@@H](C)O)C(=O)N[C@@H](C)C(=O)N[C@@H]([C@@H](C)O)C(=O)N1)[C@@H](C)O)C(=O)N1CCC[C@H]1C(=O)N[C@@H](CO)C(=O)N[C@@H](CO)C(=O)N[C@H](C(=O)N[C@@H](CC(N)=O)C(=O)N[C@H](C(=O)NCC(=O)N[C@@H](CO)C(=O)N[C@@H](Cc1c[nH]cn1)C(=O)N[C@H](C(=O)N[C@@H](Cc1ccc(O)cc1)C(N)=O)[C@@H](C)O)C(C)C)[C@@H](C)O

Each binder was assayed against T1, human calcitonin receptor (assay: SPA competition against 125I-calcitonin, membranes of BHK cells with human calcitonin receptor (Assay VII)).
Method in brief: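 BHK hCTR membranes 35 ng/μL + SPA beads 0.05 mg/well; buffer 50 mM Hepes pH 7.4, 1 mM CaCl2, 5 mM MgCl₂, 0.1% OA, 0.02% Tween20. 120 min, 25° C., shaking. Scintillation count; IC50 by one-site binding competition.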
With B1 the IC50 was 6.62 nM.
B2 was tested, and the IC50 was 4.28 nM.
B3 gave an IC50 of 0.117 nM.
B4 was tested, and the IC50 was 6.3 nM.
With B5 the IC50 was 2.04 nM.
For K([γGlu-C20 diacid])CNTATCATQRLAEFLRHSSPNFGAIPSSTNVGPHTY-NH2 (disulfide 2-7), the IC50 was 3.8 nM.
In the case of B6, the IC50 is reported as 26.1 nM.

Each binder was assayed against T1, human calcitonin receptor (assay: ratio of IC50 at hCTR over IC50 at hAmylin-R (SPA competition assays)).
Method in brief: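 Scintillation proximity competition binding on cell membranes at 35 ng/μL with SPA beads, in 50 mM Hepes pH 7.4, 1 mM CaCl2, 5 mM MgCl₂, 0.1% OA, 0.02% Tween20. Incubated 120 min at 25° C with shaking. IC₅₀ from one-site competition fit.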
With B1 the “Ratio hCT/hAmylin binding” value was 28.5.
In the case of B2, the “Ratio hCT/hAmylin binding” value is reported as 11.1.
In the case of B3, the “Ratio hCT/hAmylin binding” value is reported as 0.5.
For B4, the “Ratio hCT/hAmylin binding” value was 38.6.
In the case of B5, the “Ratio hCT/hAmylin binding” value is reported as 24.8.
In the case of K([γGlu-C20 diacid])CNTATCATQRLAEFLRHSSPNFGAIPSSTNVGPHTY-NH2 (disulfide 2-7), the “Ratio hCT/hAmylin binding” value is reported as 21.2.
In the case of B6, the “Ratio hCT/hAmylin binding” value is reported as 26.4.
